A word on the Ki: it is a dissociation constant, usually derived from enzyme kinetics or from competition with a known ligand. For orientation: Kd means the concentration at which binding is half-saturated.

Assay [1] concerns the target HEK-293 clones transfected with hMC1R, hMC3R or hMC5R. Briefly: radioligand binding with 125I-NDP-α-MSH on transfected HEK-293 clones.
For assay [2], the target named is murine MSH receptor (mouse) (UniProt Q01727). Description: competition binding of cold ACTH against 125I-ACTH1-39 on Cloudman M-3 melanoma cells.
murine MSH receptor (mouse), sequence (Q01727 whole entry): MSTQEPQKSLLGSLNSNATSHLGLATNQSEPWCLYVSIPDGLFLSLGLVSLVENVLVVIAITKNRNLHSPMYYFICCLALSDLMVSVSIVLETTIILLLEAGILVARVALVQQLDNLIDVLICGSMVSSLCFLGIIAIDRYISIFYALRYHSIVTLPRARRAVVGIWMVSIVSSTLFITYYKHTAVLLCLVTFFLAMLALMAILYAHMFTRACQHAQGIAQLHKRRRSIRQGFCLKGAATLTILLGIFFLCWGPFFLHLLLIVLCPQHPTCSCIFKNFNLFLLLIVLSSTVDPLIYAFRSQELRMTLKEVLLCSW
The target in the next assay is rat MC3-R (rat) (UniProt P32244). Description: cell-based or functional assay.
rat MC3-R (rat), sequence (P32244 whole entry): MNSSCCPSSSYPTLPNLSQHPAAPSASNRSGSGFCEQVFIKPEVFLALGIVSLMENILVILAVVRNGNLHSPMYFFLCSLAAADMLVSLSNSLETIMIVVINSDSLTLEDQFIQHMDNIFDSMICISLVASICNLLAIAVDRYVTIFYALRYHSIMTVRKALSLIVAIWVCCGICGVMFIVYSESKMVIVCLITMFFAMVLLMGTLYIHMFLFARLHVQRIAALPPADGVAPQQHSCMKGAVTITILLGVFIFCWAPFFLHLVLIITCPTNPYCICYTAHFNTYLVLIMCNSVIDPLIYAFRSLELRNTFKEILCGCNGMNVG

adrenocorticotropic hormone (unlabelled) (peptide), sequence (P01189 138-176): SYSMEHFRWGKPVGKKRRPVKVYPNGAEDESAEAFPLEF

“125I-labeled Nle,D-Phe (NDP)-α-MSH (from UniProt P01189 138-150) (peptide)” had a Ki in assay [1] of 0.11 to 0.58 nM.

With “adrenocorticotropic hormone (unlabelled) (peptide)”, in assay [2], the Kd was 63 nM.

On to “α-melanocyte-stimulating hormone (from UniProt P01189 138-150) (peptide)”, for which, in the assay with rat MC3-R (rat), the EC50 for adenylyl cyclase activation, rat MC3-R in 293 cells, α-MSH alone was 4.2 nM and the EC50 for adenylyl cyclase activation, rat MC3-R in 293 cells, α-MSH plus 0.7 nM murine agouti was 4.1 nM.
